# Reference: patent US20160031942A1 (LONDON HEALTH SCIENCES CENTRE RESEARCH, published 2016)
# Square brackets hold non-standard residues; d marks the D form. Ends that are not written are not given here. * marks the point of attachment. FITC = O=C1OC2(c3ccc(O)cc3Oc3cc(O)ccc32)c2ccc(NC(=S)*)cc21; Ahx = NCCCCCC(=O)O
# T1: Recombinant protein RHAMM-CT (truncated RHAMM, carboxy terminus containing the HA binding domain, amino acids … (UniProt Q00547 706-766))
# T1 chain: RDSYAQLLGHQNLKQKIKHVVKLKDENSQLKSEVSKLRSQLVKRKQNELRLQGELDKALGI
# T2: RHAMM (Receptor for Hyaluronic Acid Mediated Motility, CD168) expressed on human cancer cells (human, UniProt O75330 1-724)
# T2 sequence (looked up): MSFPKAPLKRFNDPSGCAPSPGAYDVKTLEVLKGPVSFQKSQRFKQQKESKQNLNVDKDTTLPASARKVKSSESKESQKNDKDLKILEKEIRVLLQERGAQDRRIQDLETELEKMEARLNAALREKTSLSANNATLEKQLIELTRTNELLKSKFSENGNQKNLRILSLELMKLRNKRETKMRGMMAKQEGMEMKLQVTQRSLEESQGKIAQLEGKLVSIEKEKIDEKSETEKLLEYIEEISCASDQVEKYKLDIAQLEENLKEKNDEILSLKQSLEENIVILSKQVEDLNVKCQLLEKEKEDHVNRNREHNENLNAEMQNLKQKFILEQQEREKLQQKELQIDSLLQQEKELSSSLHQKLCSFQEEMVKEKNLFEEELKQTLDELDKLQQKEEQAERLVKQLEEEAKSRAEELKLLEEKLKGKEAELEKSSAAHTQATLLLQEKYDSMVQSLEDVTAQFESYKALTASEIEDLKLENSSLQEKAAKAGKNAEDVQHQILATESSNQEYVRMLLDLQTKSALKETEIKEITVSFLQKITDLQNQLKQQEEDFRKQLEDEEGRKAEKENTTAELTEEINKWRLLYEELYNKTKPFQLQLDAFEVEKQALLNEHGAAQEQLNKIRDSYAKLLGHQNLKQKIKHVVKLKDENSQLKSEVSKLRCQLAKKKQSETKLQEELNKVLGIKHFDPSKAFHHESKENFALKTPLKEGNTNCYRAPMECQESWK
# T3: Recombinant protein RHAMM-CT (truncated RHAMM, carboxy terminus containing the HA binding domain, amino acids … (Mus musculus (Mouse), UniProt Q00547 706-766))
# T3 construct: Expressed in E. coli BL21 from pPAL7-RHAMM as eXact-tagged protein and purified on Profinity eXact resin (fluoride elution); M.W. 7.1 kDa, pI 10.1; also called recombinant RHAMM
# T3 sequence: T1 chain
# B1: peptide 12a (SEQ ID NO: 12), unmodified tubulin-derived peptide (peptide)
# peptide: EAFEDEEEEIDG-NH2
# notes: Synthetic 12-mer made on Rink amide MBHA resin
# B2: peptide 3a (SEQ ID NO: 3), unmodified tubulin-derived peptide, alpha-IIIc CTT (peptide)
# peptide: SVEAEAEEGEEY-NH2
# notes: as for B1
# B3: peptide 11a (SEQ ID NO: 11), unmodified tubulin-derived peptide, beta-IV CTT (peptide)
# peptide: GEFEEEAEEEVA-NH2
# notes: as for B1
# B4: peptide 9c (SEQ ID NO: 29), fluorescein-conjugated SEQ ID NO: 9 (peptide)
# peptide: {FITC}-[Ahx]EEDFGEEAEEEA-NH2
# notes: also called fluorescein-conjugated HA mimetic
# B5: peptide 9a (SEQ ID NO: 9), unmodified tubulin-derived peptide, beta-Ia CTT (peptide)
# peptide: EEDFGEEAEEEA-NH2
# notes: as for B1
# B6: peptide 1a (SEQ ID NO: 1), unmodified tubulin-derived peptide, alpha-Ia CTT (peptide)
# peptide: VEGEGEEEGEEY-NH2
# notes: Synthetic 12-mer made on Rink amide MBHA resin; also called ala-CTT
# Molecular target: T1, Recombinant protein RHAMM-CT (truncated …)
# Assay: SPR; average
row,Kd [nM],Binder
1,211,B1
2,331,B2
3,130,B3

# Molecular target: T2, RHAMM (Receptor for Hyaluronic Acid …)
# Assay: cell-based or functional assay
row,reduction in cellular fluorescence (uptake in MDA-MB-231 cells) when cells are blocked with anti-RHAMM mAb [%],Binder
1,~85,"{FITC-Ahx}-VEGEGEEEGEEY-NH2 [peptide 1c (SEQ ID NO: 25), fluorescein-conjugated SEQ ID NO: 1]"
2,~76,B4
3,~65,"{FITC-Ahx}-FTEAESNMNDLV-NH2 [peptide 14c (SEQ ID NO: 35), fluorescein-conjugated SEQ ID NO: 14]"

# Molecular target: T3, Recombinant protein RHAMM-CT (truncated …)
# Assay: SPR (GWC SPRimager II), thiol-containing peptide immobilised on maleimide chip, RHAMM injected at 500, 750, 1000 nM, 1:1 Langmuir fit
# Experimental: After peptide screening, GWC SPRimager®II system was used to determine binding kinetic constants. Thiol-containing peptides at 1 nM concentration in milliQ water were immobilized on a maleimide-functionalized gold-plated chip for 3 hours. Excess peptides were removed by washing with milliQ water. For binding studies, a series of concentrations (500 nM, 750 nM, and 1000 nM) of RHAMM were injected over the immobilized peptides. After a 15 min dissociation phase, the sensor chip surface was regenerated for the next peptide sample injection, via treatment with two 10 min pulse injections of regenerating buffer (2 M NaCl in HBS-EP, pH 7.4) at […]. Baseline returned to the initial value after the regeneration step, confirming the removal of all bound analytes. Data were analyzed and the corresponding dissociation constants (KD) were obtained via non-linear regression fitting to a Langmuir binding model. In all experiments, reference subtraction was performed using data obtained from reference plate (no peptide) and peptide functionalized plate.
row,Kd [nM],Binder
1,24,"Ac-C[Ahx]VEGEGEEEGEEY-NH2 [peptide 1b (SEQ ID NO: 24), SEQ ID NO: 1 with N-acetyl cysteine modified N-terminus]"
2,30,"Ac-C[Ahx]FTEAESNMNDLV-NH2 [peptide 14b (SEQ ID NO: 34), SEQ ID NO: 14 with N-acetyl cysteine modified N-terminus]"
3,32,"Ac-C[Ahx]EEDFGEEAEEEA-NH2 [peptide 9b (SEQ ID NO: 28), SEQ ID NO: 9 with N-acetyl cysteine modified N-terminus]"

# Molecular target: T3, Recombinant protein RHAMM-CT (truncated …)
# Assay: SPR-based screening (FIG. 3B legend)
# Experimental: ProteON XPR36 system was used for the selection and ranking of different tubulin derived peptides against RHAMM. For immobilization of RHAMM, the ProteON GLC sensor chip surfaces were activated by amine coupling using 100 mM EDAC and 24 mM sulfo-NHS. RHAMM (30 μg/mL in sodium bicarbonate buffer, pH 9.7) was injected at a flow a rate of 30 μl/min. A buffer sample was injected on a different sensor plate for use as a reference. Ethanolamine HCl (1M, pH 8.5) was then injected to deactivate any remaining surface groups. Peptides (10 μM in PBS-T, 2% DMSO) were injected to a RHAMM functionalized surface at 50 μL/min for 3 minutes followed by a 10 minute dissociation (i.e. injection of PBS-T buffer) period. The surfaces were regenerated using two injections of 30 μL of 1M NaCl prior to the injection of the next peptide. In all experiments, reference subtraction was performed using data obtained from reference plate (No RHAMM) and RHAMM functionalized plate.
# After immobilization of RHAMM on the SPR sensor chip, injection of a series of tubulin derived peptides was carried out. Association of the peptides with RHAMM proceeded for 3 minutes and the dissociation in analyte free buffer was carried out for 10 minutes. […] For each peptide injection, control sensograms (no immobilized RHAMM and buffer injection) were subtracted from the test sensograms, and the chip surface was regenerated prior to the next peptide injection in order to remove any remaining bound peptides.
row,binding result,Binder
1,binds,B1
2,binds,B5
3,binds,B2
4,binds,B3
5,binds,B6

# Molecular target: T1, Recombinant protein RHAMM-CT (truncated …)
# Assay: SPR; RHAMM 500 nM
row,Kd [nM],Binder
1,217,B1
2,310,B2
3,126,B3

# Molecular target: T1, Recombinant protein RHAMM-CT (truncated …)
# Assay: SPR
row,Kd [nM],Binder
1,< 1000,RPDYISWGTQEQ [15]
2,< 1000,DNPDEMDTSREI [17]
3,211,B1
4,< 1000,VQQLIDEYHAAT [16]
5,< 1000,GEFEEEEGEDEA [SEQ ID NO 10 (tubulin-derived peptide containing the EEXEDZ motif)]
6,130,B3
7,< 1000,SNMNDLVSEYQQ [13]

# Molecular target: T1, Recombinant protein RHAMM-CT (truncated …)
# Assay: SPR; RHAMM 1000 nM
row,Kd [nM],Binder
1,31.9,"Ac-C[Ahx]FTEAESNMNDLV-NH2 [peptide 14b (SEQ ID NO: 34), SEQ ID NO: 14 with N-acetyl cysteine modified N-terminus]"
2,201,B1
3,358,B2
4,120,B3

# Molecular target: T1, Recombinant protein RHAMM-CT (truncated …)
# Assay: SPR; RHAMM 750 nM
row,Kd [nM],Binder
1,29,"Ac-C[Ahx]FTEAESNMNDLV-NH2 [peptide 14b (SEQ ID NO: 34), SEQ ID NO: 14 with N-acetyl cysteine modified N-terminus]"
2,215,B1
3,33.8,"Ac-C[Ahx]EEDFGEEAEEEA-NH2 [peptide 9b (SEQ ID NO: 28), SEQ ID NO: 9 with N-acetyl cysteine modified N-terminus]"
4,325,B2
5,145,B3

# Molecular target: T3, Recombinant protein RHAMM-CT (truncated …)
# Assay: solid phase peptide binding assay (ELISA), immobilised RHAMM
row,binding result,Binder
1,binds,"{FITC-Ahx}-SVEAEAEEGEEY-NH2 [peptide 3c (SEQ ID NO: 27), fluorescein-conjugated SEQ ID NO: 3]"
2,binds,"{FITC-Ahx}-GEFEEEAEEEVA-NH2 [peptide 11c (SEQ ID NO: 31), fluorescein-conjugated SEQ ID NO: 11]"

# Molecular target: T3, Recombinant protein RHAMM-CT (truncated …)
# Assay: ELISA, fluorescein-labelled peptide on immobilised RHAMM
# Experimental: ELISA was carried out to test the ability of FITC-labelled tubulin-derived peptides compete with HA for binding site with RHAMM. Recombinant RHAMM (100 μL, 10 μg/mL in 0.05M PBS, pH=9) was immobilized on 96-well ELISA plates (final concentration of 1 μg/well) and incubated overnight at 4° C. resulting in final amount of protein 1 μg/well. Plates were washed three times with (0.05%) PBS-Tween-20 buffer (200 μL/well), washed with blocking buffer (5% 200 μL/well, PBS-Tween-20 per well), and incubated for 1 hour at room temperature. Following three washes as described above, FITC-labeled tubulin derived peptides (final concentration of 1 μg/mL) and HA (100 μL/well, M.W. 220 kDa, 10 μg/mL in PBS, serial dilutions have been made for HA=1:1, 1:2, 1:4, 1:8, 1:16) were added to plates and incubated overnight at 4° C. Plates were washed as described above, and absorbance was measured at 485/535 nm.
# A competitive ELISA was done to determine the selectivity of the peptides to the HA binding domain of RHAMM. In this assay, fluorescein-labelled peptides were used and the effectiveness of unlabelled HA to block the binding of peptides to RHAMM was evaluated. Fluorescein-labelled peptides SEQ ID NOs: 1, 3, 9, 11, 12 and 14, corresponding to peptides 1c, 3c, 9c, 11c, 12c and 14c in FIG. 2B (SEQ ID NOs: 25, 27, 29, 31, 33 and 35) were added to ELISA plates containing immobilized RHAMM, followed by the addition of varying concentration of HA, which is the natural ligand of RHAMM. A decrease in observed fluorescence is seen as HA displaces the fluorescein-labelled peptides if they compete for the same binding site.
row,binding result,Binder
1,binds,"{FITC-Ahx}-VEGEGEEEGEEY-NH2 [peptide 1c (SEQ ID NO: 25), fluorescein-conjugated SEQ ID NO: 1]"
2,binds,B4
3,binds,"{FITC-Ahx}-FTEAESNMNDLV-NH2 [peptide 14c (SEQ ID NO: 35), fluorescein-conjugated SEQ ID NO: 14]"

# Molecular target: T1, Recombinant protein RHAMM-CT (truncated …)
# Assay: SPR
# Remark: another data set of the same source
row,Kd [nM],Binder
1,< 1000,DSADGEDEGEEY [SEQ ID NO 2 (tubulin-derived peptide containing the DEXEEZ motif)]
2,< 1000,IDSYEDEDEGEE [SEQ ID NO 4 (tubulin-derived peptide containing the DEXEEZ motif)]
3,32,B5
4,176,FVHWYVGEGMEE [8]
5,< 1000,DSFEEENEGEEF [5]
6,331,B2
7,330,LEKDYEEVGVDS [6]
8,24,B6
9,180,GEFSEAREDMAA [7]
